Test: soluble on expression in E. coli; label from the status in PepcDB or PDB records

| Sequence | soluble on expression in E. coli |
| --- | --- |
| MSQYNPTTADFEALLMQSFQTNDLNEGSVVKGRVIAIEKDMAIIDAGLKVEGRIPLKEFGAKGKDGSLQIGDEVEVYIERIENAMGEAVLSREKARREESWIRLEEKFNAGARVDGVIFSQVKGGFTVDLDGAVAFLPRSQVDIRPIRDVSPLMHNSQSFEILKMDRRRGNIVVSRRTVLEESRAEQRSEIVQNLEENQIVEGVVKNITDYGAFVDLGGIDGLLHVTDMAWRRVNHPSEILTIGQTIKVQIIRINQDTHRISLGMKQLESDPWESISARYPVGKKITGAVTNITDYGGFVEIEPGIEGLIHVSEMSWTKKNVHPGKILSTSQEVEVVILEIDPSKRRISLGLKQTFENPWVAFANKFPVNSQIEGEVKNKTEFGLFIGLEGDVDGMVHLSDLDWNRPGEQVIDTYNKGDIVKAVVLDVDIEKERISLGIKQLSSDKVGEAAASGELRKGAVVTCEVTAVNDNGIDVKLTDHNLETTIRRTDLARDRDEQRPERFSIGQRVDARITAFDKKTRKLSVSIKALEIAEEKEAVAQYGSTDSGASLGDILGAALKKQEQDLEHHHHHH | soluble |
| MSLDSRTELKEIAGVAKRLTLLYVEDDIPTRRFLKRRLEEIFGVVAEAANGEEGLKRFLQGGIDLVISDNIMPFMDGIEMIREIRRVDTRLPIILTTAFIDTDYLMEAINLGVTQFVAKPISMDLLHNAIQMAIQRVVLDNLTRKAKEQEIELLRFQDRYHSLQQESARRKERNLIKNDHYLQTIQGKEGEEWVLDALHRSLEILSGDSYSVRGLDEGRALLFIVDGMGKGLSASVTTTLSIAFLNYLIDERIAQGARVELGSLVGDYLRFIQKELLEEEIISAGFYDFDFKRERLSYITFGMPSMLWVNSQGECERIKSSSPPLMKYSLPPLPQEICIQDLEKILLYSDGLNEALLDEETIYGEILEEELLWNRFLSEMNRRFRSRVKDVDDDITAFWVRRVPQNPSASRSYEIKSSLLEVHRLSDTIEEGLESFGIFDLEASTRFMTALTEMLMNAYEHGSLGVERLTKDQLIQEGSYDEYLAKESKPHRRIRVRLRRYEEGEATLLTCEVEDEGRGFDTQTLLQNLRNEPETLTSGRGIRLTKGLVDHLCFKKGGRVSQFTVVAREALFGNEGHHHHHH | not soluble |
| MAHHHHHHMSAKLTVAVPRLASTVLLLARNPKHAISEQRPATGDNAARENDIHVLIMKRHGKARFMPGVYVFPGGGIEGSDYAAATHYLAEHYNLHLQDAADKKVTTQDFIESCGQPSAEEAELEAWACRVGALRELAEEAACVLRRDGCIFSEAEWIKWQKSRSDAGATGGASTDPVSSRPATLLPIYDLPAVSSLRPVARWVSPRQSRYRYDTYFYAALVNSALVSAEAHKAAHAPCSTQASSCDEANAGMGVRCIPPQELPLLEQASEVSELLWISPLEALRRHEDPSDVFSLAPPTYLLLHALSLQPSFASLAAAWAAAPASPEDPAAKPLGDLPHSSVLPCVEPLSTMTEDGRRIMKFVLPARYFHETGWSVAEGEYLFPGECCAGHRHFIHVFVGRAGATTGDGATADKPCTILH | not soluble |
| MSAISPDTKSFAIPTLADEGSSSKPASSLDLPKHESIRFKPIKTLASRIDGSEYYDEASMEKVMEMLEIGRTDEAVAYADTLYSNIIDDEQQDIVTIAEYVKILVVLRQWRRISHIIARGNYHQIHIVFAYYAATALFQRKLYEDVAELSVGHLLPSNGQIGPLPVRTLSQVTGRYVEEERMKYSFANMAELDNSSKKLRMVPALMITIAESFLKLMNRDAAMICINYALSLDNTTLHVERLMAKYNLVEPAMWEKYRKVRNEQLKLHEGNHDPRILMERAQRAYEMGRFRETKKITDELFDLFGPHPECIILRIHCLTMLKDSRSLLELGHQLVSDDPHIPLPWYCVAMYYYSIGANSRARNFISKCTMMDSTFAEGWVAFGHILHYEVEHEQSMSCYYRASKLVDKSSEPFLYTSLQYSTHSQKLSKKFMGEAVARAPNDPLIRHEEACVAYTAKSYAEADILFRTVLYMVTETDEIIPIEEVLKKKIDDFWHPMLNNIGHIARRQGRLNEAIMFYQKAIRMEPKFVDAIASTALCYAVLGNIDKATEFFNKALAIDPFNETIRQCLSKMIQASKESYSVDQQTLPPAYNSETYFGAQEILPYCAIRKPRNDGFVVPSIVSSSQPFMSMLRDRLRRQDQLYAQEPDNDAGNQV | not soluble |
| MSDLYVTKEGDMVDAICWRYYAKGQQALAVERVYAANFGLADYGPILKAGITIVLPILPYPKATPVIRIWGSQS | not soluble |
| MLWTENITLRFGGVTALDNVSVEVRRGEILGIIGPNGAGKTSLLNVITGVYKPQRGRVYFKGRDITGLKPHQRITLGLSRTFQHSELFHSMTVLENIMVRLHPWTRGSILEKALWAFRAKRWEVEARERAEHVIDLLDLHEHRHSPIGALPPGIQKKVDLAGALAQNPEVVLMDEPMAGLSKEEKEDIVRAIIETSETMHTTMVLIEHDMEVVTDVCDRVVVMDYGKVIFEGPPHEAVADERVRKAYLGE | soluble |
| MKNTKLLLAIATSAALLTGCQNTHGIDTNMAISSGLNAYKAATLSDADAKAIANQGCAEMDSGNQVASKSSKYGKRLAKIAKALGNNINGTPVNYKVYMTSDVNAWAMANGCVRVYSGLMDMMNDNEIEGVLGHELGHVALGHSLAEMKASYAIVAARDAISATSGVASQLSRSQLGDIAEGAINAKYSRDKESEADDFSFDLLKKRGISTQGLVGSFEKLASLDGGRTQSMFDSHPPSTERAQHIRDRIASGKLEHHHHHH | soluble |
| MGSDKIHHHHHHMQEKKTLTFVVPAYNMTEYLERCVESLIASKRNDDIEVLIVDDGSSDGTLEMAKTFEARNPGIVRAIHQENKGHGGAVNTGIAAASGMYVKVVDADDWVGPESLEQVLAVLRDEVGKDDPLDMLVTNYVYDKVGKRNKHVVNFRHAMEPGKRLTWDDLGHFGLTEYILMHALVYRTAVVRESKMQLPEHTFYVDFIYAYQPFPWVKSLQYLDTPFYHYFIGRDGQSVQTDVMIRRVDQLRLVNQCMVHATPERGTVPDGLYRYMIHFLAIESSVASVFMILSREPENYEKKKAMWADIEAYSPTIYKDVRKKAMSRALNLRGSAGRFVIRKGYFLAEHVVGFN | not soluble |
| MARLTVHTLETAPEAAKARVEAVLQNNGFIPNLIGVLSNAPEALAFYQEVGKLNAANSLTAGEVEVIQIIAARTNQCGFCVAGHTKLATLKKLLSEQSVKAARALAAGEFDDAKLGALAAFTQAVMAKKGAVSDEELKAFFDAGYNQQQAVEVVMGVALATLCNYVNNLGQTEINPELQAYA | soluble |
| VALLGLILPYFVSRWWARTQSYTKKGIHNVTASNFVSNLVNYKPSEIVTTDLILHWLSFAHEFKQFFPDLQPTDFEKLLQDHINRRDSGKLNNAKFRIVAKCHSLLHGLLDIACGFRNLDIALGAINTFKCIVQAVPLTPNCQILQLPNVDKEHFITKTGDIHTLGKLFTLEDAKIGEVLGIKDQAKLNETLRVASHIPNLKIIKADFLVPGENQVTPSSTPYISLKVLVRSAKQPLIPTSLIPEENLTEPQDFESQRDPFAMMSKQPLVPYSFAPFFPTKRRGSWCCLVSSQKDGKILQTPIII | not soluble |
| GSHMDADGKLLTEGGENENLRKNASKKETSLFQGFKSYLPIAELAIENTERLNY | soluble |
| MELLRPEATVLSLGRRVLSFDREGRPYHYFREGKTYKRALDGSLHLRYREGERRRRRLAPEEALGVYQEVLDLAEAHLRDERRREEVLRWTPEGLLDPTPYRRAYAWPVSILPPDAYLSVVLQATTGCTWNRCAFCSFYQDRPFQKRTPEAFREHIQAVLALLGRGRLLRRGVFLADGNALALSEPLLPLLELVRAHFPGEPVMGFLDLFTGLKKAPSWWERLGGMGLRRVYIGLETGHAPLLALLRKPGHPKEVLPLVRALKSSGLSVGVILMVGSGGKAFAEAHFRESLALLAELPLGRGDVVYLSPFREDPGTPYAALGLAPLEDLEGELQRWAQAVRRLGLRASRYEIRE | soluble |
| MVTDEAGLLSNAQEEVMNGRLRAIRSSHAVEFAVVTLPSIGDAPLEDFTLKLARQWGVGNEKNNNGLLLVLVLDQRRVRFETGYGLEGYLPDGLLSRIIHDRMIPHFRSGNYAEGLSEGVLAVQQVLDGSYDVKPLEHHHHHH | not soluble |

Source: the DeepSol protein solubility set
